# Assay results taken from patent US20020119121A1, “Compositions and methods for inducing specific cytolytic T cell responses” (priority 2000, published 2002).
# Experiments:
# [1] = test system: 51Cr-labeled recipient LB; test: Inhibition of LB-directed cytotoxicity by granule exocytosis pathway blockers; settings: CMA 1, 10, 100 nM/L for 2 h or SrCl2 5, 25, 50 mM/L for 18 h; one mean given for either reagent; FIG. 5 E:T 5:1
# Text: Cytolytic activity of a CTL refers to the secretion of the contents of secretory granules into the immediate vicinity of the target cell to which it attaches. The granules contain perforins, various lysosomal enzymes, and calcium binding proteins that destroy the target cell.
# [2] = test system: JY (A2+) and 221 (A2-) 51Cr-labeled target cells
# [3] = test system: class I molecules, TAP transporters, PA28, immunoproteasomes in monocytes/DC; test: Expression of class I molecules, TAP transporters, PA28 and immunoproteasomes by flow cytometry and immunoprecipitation; format: cell-based, human; settings: treatment of immature DC
# Text: To determine if the differences observed between DC treated with LPS, TNF-α, or CD40L in inducing CTL activity of CD8^+ T cells were due to differences in antigen processing and presentation capacity of monocytes, immature DC, and mature DC, the expression levels of class I molecules, TAP transporters, PA28 (an immunoproteasome regulator), and immunoproteasomes were examined by flow cytometry (FACScan, Benton Dickenson, Milano, Italy) and immunoprecipitation with appropriate antibodies. […] The level of expression of class I molecules was further increased by two fold upon treatment with LPS, CD40L, or TNF-α.
# [4] = test system: JY (A2+) and 221 (A2-) 51Cr-labeled target cells; test: 51Cr-release assay of HLA-A2 specific CTL activity induced in purified CD8+ TL by dendritic cells
molecule,measurement,setting,value
"C/C=C/[C@H]1O[C@@](O)([C@@H](C)[C@H](O)[C@H](C)[C@H]2OC(=O)/C(OC)=C/C(C)=C/[C@@H](C)[C@@H](O)[C@@H](CC)[C@@H](O)[C@H](C)C/C(C)=C/C=C/[C@@H]2OC)C[C@@H](O[C@H]2C[C@@H](O)[C@H](OC(N)=O)[C@@H](C)O2)[C@@H]1C [CMA, concanamycin A]",mean inhibition of LB-directed cytotoxicity,[1],87%
IL-4: lymphokine added to the CTL induction culture,effect of addition on cytotoxic activity,[2],no effect
IL-6: lymphokine added to the CTL induction culture,effect of addition on cytotoxic activity,[2],no effect
IL-7: cytokine interleukin-7,effect on cytotoxic activity induced by immature DC,[2],no effect
same,enhancement of cytotoxic activity,[2],approximately three fold
IL-12: cytokine interleukin-12,substitution for CD40L in inducing cytotoxic activity,[2],two of the four
lipopolysaccharide [LPS],further increase of expression of class I molecules,[3],two fold
same,induction of cytotoxic activity from purified CD8+ T cells by treated DC,"[4]; DC treated with LPS 20 ng/ml, TNF-α 20 ng/ml (40 h) or irradiated CD40L-transfected cells, FIG. 1A",only CD40L treated DC were capable of inducing cytotoxic activity
tumor necrosis factor-α [TNF-α],further increase of expression of class I molecules,[3],two fold
"CD40L: CD40 Ligand, supplied as irradiated CD40L-transfected cells added to immature DC; dendritic cell maturation factor (protein, UniProt P29965 1-261, looked up, full-length expressed on irradiated transfected cells, CD40 Ligand, supplied as irradiated CD40L-transfected cells added to immature DC; dendritic cell maturation factor) MIETYNQTSPRSAATGLPISMKIFMYLLTVFLITQMIGSALFAVYLHRRLDKIEDERNLHEDFVFMKTIQRCNTGERSLSLLNCEEIKSQFEGFVKDIMLNKEETKKENSFEMQKGDQNPQIAAHVISEASSKTTSVLQWAEKGYYTMSNNLVTLENGKQLTVKRQGLYYIYAQVTFCSNREASSQAPFIASLCLKSPGRFERILLRAANTHSSAKPCGQQSIHLGGVFELQPGASVFVNVTDPSQVSHGTGFTSFGLLKL",further increase of expression of class I molecules,[3],two fold
same,CD8+ cell populations in which CTL activity was detected,"[4]; CD40L-treated DC, four CD8+ populations tested",three of the four
